According to patent US20250250357A1 (NANJING ZAIMING PHARMACEUTICAL, published 2025):

Legend:
[1] = target: T1, human MSLN-R2-his protein (human, UniProt Q13421 391-486); experiment: ELISA, coated MSLN-R2;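 note: chimeric antibodies bound to blocked coated plates for 2 h at 37 °C, TMB colour development stopped with HCl, with a negative control antibody for comparison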
T1 construct: Region 2 of human MSLN, His-tagged; also called human MSLN-R2 protein; hMSLN-R2-his; not shown: His tag

[2] = target: T2, human MSLN-R3-his protein (human, UniProt Q13421 487-598); experiment: ELISA, coated MSLN-R3
T2 construct: Region 3 of human MSLN, His-tagged; also called human MSLN-R3 protein; hMSLN-R3-his; not shown: His tag
T2 sequence (Q13421 495-606): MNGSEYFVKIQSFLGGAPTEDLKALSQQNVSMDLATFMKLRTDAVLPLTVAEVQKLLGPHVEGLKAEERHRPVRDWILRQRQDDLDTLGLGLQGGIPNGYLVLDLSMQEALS

[3] = target: T3, human MSLN-R3-3 polypeptide (human); experiment: ELISA, coated MSLN-R3-3;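 note: chimeric antibodies in serial dilution bound to plate-coated antigen for 2 h at 37 °C, with a negative control antibody alongside, and TMB colour development stopped with HCl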
T3 construct: also called human MSLN-R3-3 protein; hMSLN-R3-3
Method: The plate was sealed with a plastic film and incubated at 4° C. overnight. The next day, the plate was washed twice with PBST, and a blocking buffer [PBS+2% (w/w) BSA] was added for blocking at room temperature for 2 h. The blocking buffer was discarded, and a chimeric antibody or negative control antibody serially diluted from 100 nM was added at 50 μL/well. After incubation at 37° C. for 2 h, the plate was washed 3 times with PBST. […] After incubation at 37° C. for 2 h, the plate was washed 5 times with PBST. A TMB substrate was added at 50 μL/well for incubation at room temperature for 5-10 min, and then a stop solution (1.0 N HCl) was added at 50 μL/well.

T1 sequence (Q13421 other isoform, or with tags, fused parts or gaps): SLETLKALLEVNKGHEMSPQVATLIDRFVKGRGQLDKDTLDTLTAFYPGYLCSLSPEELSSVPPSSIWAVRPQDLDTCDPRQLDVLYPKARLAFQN

| Binder | OD450 at 0.0001 nM [1] [OD450] | OD450 at 0.001 nM [1] [OD450] | OD450 at 0.01 nM [1] [OD450] | OD450 at 0.1 nM [1] [OD450] | OD450 at 1 nM [1] [OD450] | OD450 at 10 nM [1] [OD450] | OD450 at 100 nM [1] [OD450] | OD450 at none (no antibody) [1] [OD450] | OD450 at 0.0001 nM [2] [OD450] | OD450 at 0.001 nM [2] [OD450] | OD450 at 0.01 nM [2] [OD450] | OD450 at 0.1 nM [2] [OD450] | OD450 at 1 nM [2] [OD450] | OD450 at 10 nM [2] [OD450] | OD450 at 100 nM [2] [OD450] | OD450 at none (no antibody) [2] [OD450] | OD450 at 0.0001 nM [3] [OD450] | OD450 at 0.001 nM [3] [OD450] | OD450 at 0.01 nM [3] [OD450] | OD450 at 0.1 nM [3] [OD450] | also measured |
| --- | --- | --- | --- | --- | --- | --- | --- | --- | --- | --- | --- | --- | --- | --- | --- | --- | --- | --- | --- | --- | --- |
| S009-F1.35.24 (antibody, human IgG1, kappa, V domains shown, Human-murine chimeric antibody, human IgG1/kappa constant regions) VH: EVQLQQSEPELVKPGASVRISCKASGYSFTDYYMHWVKQSPENRLEWIGEINPSTGGTSYNPKFKDKATLTVDKSSSTAYMQLKSLTSEESAVYYCTRYHYYGSSSYVMDYWGQGTSVTVSS VL: QIVLTQSPAILSASPGERVTMTCSASSSVYHMHWFQQKSGTSPKRWVYDTSKLASGVPARFSGSGSGTSYSLTISSMEAEDAATYYCQHWRTNPLTFGAGTKLELKR | 0.04 | 0.05 | 0.05 | 0.04 | 0.05 | 0.05 | 0.06 | 0.05 | 0.05 | 0.05 | 0.05 | 0.05 | 0.05 | 0.05 | 0.06 | 0.05 | 0.07 | 0.07 | 0.07 | 0.08 | OD450 at 1 nM [3]: 0.07 OD450; OD450 at 10 nM [3]: 0.07 OD450; OD450 at 100 nM [3]: 0.15 OD450; OD450 at none (no antibody) [3]: 0.07 OD450 |
| S009-F1.57.1 (antibody, human IgG1, kappa, V domains shown, Human-murine chimeric antibody, human IgG1/kappa constant regions) VH: EAQLQQSGAVFVKPGASVKLSCTASGFSSKDIFLHWVKQRPEQGLEWIGRIDPASDNTIYDPKFQDRATITSDRSSNTAYLQFSSLTSEDTAVYFCLYFDFWGQGTTLTVSS VL: DIVMTQATPSISVTPGESVSISCRSSESLLHSNGNTYLYWFLQRPGQSPQLLIYRMSNLASGVPDRFSVSGSGTAFTLRISRVEAEDVGVYYCMQHLEYPLTFGAGTKLELKR | 0.05 | 0.04 | 0.04 | 0.07 | 0.04 | 0.05 | 0.11 | 0.05 | 0.05 | 0.05 | 0.06 | 0.19 | 0.86 | 1.81 | 2.25 | 0.05 | 0.06 | 0.07 | 0.07 | 0.07 | OD450 at 1 nM [3]: 0.07 OD450; OD450 at 10 nM [3]: 0.07 OD450; OD450 at 100 nM [3]: 0.11 OD450; OD450 at none (no antibody) [3]: 0.07 OD450 |

Continued, in another order:

| OD450 at 0.0001 nM [1] [OD450] | OD450 at 0.001 nM [1] [OD450] | OD450 at 0.01 nM [1] [OD450] | OD450 at 0.1 nM [1] [OD450] | OD450 at 1 nM [1] [OD450] | OD450 at 10 nM [1] [OD450] | OD450 at 100 nM [1] [OD450] | OD450 at none (no antibody) [1] [OD450] | OD450 at 0.0001 nM [2] [OD450] | OD450 at 0.001 nM [2] [OD450] | OD450 at 0.01 nM [2] [OD450] | OD450 at 0.1 nM [2] [OD450] | OD450 at 1 nM [2] [OD450] | OD450 at 10 nM [2] [OD450] | OD450 at 100 nM [2] [OD450] | OD450 at none (no antibody) [2] [OD450] | OD450 at 0.0001 nM [3] [OD450] | OD450 at 0.001 nM [3] [OD450] | OD450 at 0.01 nM [3] [OD450] | OD450 at 0.1 nM [3] [OD450] | Binder | also measured |
| --- | --- | --- | --- | --- | --- | --- | --- | --- | --- | --- | --- | --- | --- | --- | --- | --- | --- | --- | --- | --- | --- |
| 0.03 | 0.05 | 0.04 | 0.06 | 0.04 | 0.05 | 0.06 | 0.04 | 0.04 | 0.06 | 0.07 | 0.26 | 1.06 | 2 | 2.32 | 0.05 | 0.06 | 0.07 | 0.07 | 0.07 | S009-F1.62.9 (antibody, human IgG1, kappa, V domains shown, Human-murine chimeric antibody, human IgG1/kappa constant regions) VH: EVQLQQSGADLVKPGASVKLSCTVFGLNFKDTFMHWVRQRPEQGLEWIGRIDPANDNSIYGPKFQDKATITADTSSNTAYLHLSSLTSEDTAVYYCLYFDNWGHGTTLTVSS VL: DIVMTQAASSEPVTPGESVSISCRSDKSLLHSNGHNYLYWFLQRPGQSPHLLIYRMSNLASGVPDRFSGSGSGTAFTLRISRVEAEDVGVYYCMQHLEYPLTFGAGTKLELKR | OD450 at 1 nM [3]: 0.06 OD450; OD450 at 10 nM [3]: 0.07 OD450; OD450 at 100 nM [3]: 0.13 OD450; OD450 at none (no antibody) [3]: 0.07 OD450 |
| 0.03 | 0.04 | 0.06 | 0.05 | 0.04 | 0.05 | 0.06 | 0.04 | 0.05 | 0.06 | 0.17 | 1 | 1.62 | 2.05 | 2.51 | 0.05 | 0.06 | 0.06 | 0.06 | 0.06 | S009-F1.59.1 (antibody, human IgG1, kappa, V domains shown, Human-murine chimeric antibody, human IgG1/kappa constant regions) VH: EVKLEGSGGGLVQPGGSMMLSCVATGFTFSSYWMNWVRQSPDRGLEWVAEIRLKSNGFAAFYAESVKGRFTISRDDSKSSVYLQMNNLRTEDTGIYYCTYFVHWGQGILVTVSE VL: DIVLTQSPTSLAVSLGQRATISCRTSESVEYFGTILIQWYQQKPGQPPKLLIFGASNVESGVPARFSGSGSGTDFSLNIHPVEEEDIAMYFCQQNRKVPYTFGGGTTLELKR | OD450 at 1 nM [3]: 0.07 OD450; OD450 at 10 nM [3]: 0.07 OD450; OD450 at 100 nM [3]: 0.18 OD450; OD450 at none (no antibody) [3]: 0.07 OD450 |
